Laboratory results reported in US20150232562A1 (Ablynx, published 2015).

Target: T1, recombinant human ErbB2/Fc chimera (human, UniProt P04626 23-652)
T1 construct: bought from R&D Systems; also called rhErbB2-Fc; rhErb2-Fc; Fc part of the bought chimera not given; not described
Assay: ELISA, coated ErbB2/Fc

Binder | binding result
13C2 (VHH, C-term myc-His6 tag) VHH: EVQLVESGGGLVQAGGSLRLSCAASGSTFSINRMAWYRQSPGKQRELVAAVDNDDNTEYSDSVAGRFTISRDNAKNAVHLQMNSLRLEDTAVYYCNAKQLPYLQNFWGQGTQVTVSS | binds
14H12/1-125 (VHH, C-term myc-His6 tag) VHH: EVQLVESGGGLVQAGGSLRLSCIASERTFSSAGVGWFRQAPGKERDFVAAISWNGVTIYYADSVKGRFTISRDNAKNTVYLQMNSLKPEDTAVYYCAARINYSVLTTTSSSYHYWGQGTQVTVSS | binds
47G11 (VHH, C-term myc-His6 tag) VHH: EVQLVESGGGLVQPGGSLRLSCAASGRIFYPMGWFRQAPGKEREFVAAIGSGDIITYYADSVKGRFTISRDNAKNTVYLQMNSLKPEDTAVYYCASSRDYSRSRDPTSYDRWGQGTQVTVSS | binds
11A71A/1-116 (VHH, C-term myc-His6 tag) VHH: EVQLVESGGGLVQPGGSLRLSCAASGNIDGIITMGWYRQRPGKPREWVGTINSGGDTNYAGSVKGRFTIARDDAKNTMYLQMNGMKPEDTAVYYCKMNRAGIYEYWGQGTQVTVSS | binds
17G11 (VHH, C-term myc-His6 tag) VHH: EVQLVESGGGLVQAGGSLRLSCAASGSTFSINRWGWYRQAPGKQRELVAAIDDGGNTEYSDFVNGRFTISRDNPETAVHLQMNSLKLEDTAVYYCNAKQLPYLQNFWGQGTQVTVSS | binds
27B3 (VHH, C-term myc-His6 tag) VHH: EVQLVESGGGLVQAGGSLTLSCTASETTVRIRTMAWYRQPPGNQREWVATIGSNGFATYPDSVKGRFTISRDNAKNTVYLQMNSLKPEDTAVYYCRDINRDIWGQGSQVTVSS | binds
27E5 (VHH, C-term myc-His6 tag) VHH: EVQLVESGGGLVQAGGSLTLSCTASETTVRIRTMAWYRQPPGNQREWVATIGSNGFATYPDSVKGRFTISRDNAKNTVYLQMNSLKPEDTAVYYCRDINRDIWGQGSQVTVSS | binds
27D6 (VHH, C-term myc-His6 tag) VHH: EVQLVESGGGLVQAGGSLTLSCTASETTVRIRTMAWYRQPPGNQREWVATIGSNGFATYPDSVKGRFTISRDNAKNTVYLQMNSLKPEDTAVYYCRDINRDIWGQGSQVTVSS | binds
30D10 (second entry, SEQ ID NO: 2204) (VHH, C-term myc-His6 tag) VHH: EVQLVESGGGLVQAGGSLTLSCTASETTVRIRTMAWYRQPPGNQREWVATIGSNGFATYPDSVKGRFTISRDNAKNTVYLQMNSLKPEDTAVYYCRDINRDIWGQGSQVTVSS | binds
21A81/1-122 (VHH, C-term myc-His6 tag) VHH: EVQLVESGGGLAQAGGSLRLSCAVFGRSRYGMAWFRRAPGKEREFVAGIAWNGASIGSADSVRGRFTISRDNSENTVYFEMGSLKPEDTAVYYCAICRISWCAGAESDYGYWGQGTQVTVSS | binds
13G101/1-123 (VHH, C-term myc-His6 tag) VHH: EVQLVESGGGLVQPGDSLRLSCSASEGTLSRSRVAWFRQAPGKEREFVTVISGVGTSYADSVKGRFTISRDDAKNTVYLQMNSLKAEDTAIYYCAADFRSTWLSSSGSSYTYWGQGTQVTVSS | binds
17D7 (VHH, C-term myc-His6 tag) VHH: EVQLVESGGGLVQPGGSLRLSCAASGFTLDYCAIGWFRQAPGKEREGVSCISSSDGSTYYADSVKGRFTISRDNAKNTVYLQMNSLKPEDTAVYYCATDRGSGTCYADFGSWGQGTQVTVSS | binds
11A101/1-120 (VHH, C-term myc-His6 tag) VHH: EVQLVESGGGLVQAGGSLRLSCAASGRTFNAMGWFRQAPGKEREFVAAISRSPGVTYYADSVKGRFTTSRDNAKNTVYLQMNDLKPEDTAVYYCAADFYLATLAHEYDYWGQGTQVTVSS | binds
13G41/1-121 (VHH, C-term myc-His6 tag) VHH: EVQLVESGGGLVQPGGSLTLSCVGSGRRFSADVMGWYRQAPGKQREFVASISSGSAINYADSVKGRFTVSRDNAQNTVYLQMNSLKIEDTGVYYCNARRIVNVEGAYRDYWGQGTQVTVSS | binds
15D10 (VHH, C-term myc-His6 tag) VHH: EVQLVESGGGLVQPGGSLKLSCAASGFTFSSYRMYWVRQAPGKGLEWVSAIKPDGSITYYADSVKGRFTISRDNAKNTVYLQMNSLKPEDTAVYYCATDCGVPGFGWTFSSWGQGTQVTVSS | binds
13G71/1-124 (VHH, C-term myc-His6 tag) VHH: EVQLVESGGGLVQAGGSLRLSCAASGRAFSSYAMGWFRQAPGKERDFVAAITSSGSTNYADSVKGRFTISRDNAKNTVYLQMNSLKPEDTAVYYCGARVNYAAYSRLEHDYHYWGQGTQVTVSS | binds
11B42/1-123 (VHH, C-term myc-His6 tag) VHH: EVQLVESGGGLVQAGDSLRLSCAASGFTFSNHIMGWFRQAPGKERELIAHITWNGGSTYYADSVKGRFAISRDNALNTVYLQMNSLKPEDTAVYYCAARPSYSTNNVKSYRYWGQGTQVTVSS | binds
46D4 (VHH, C-term myc-His6 tag) VHH: EVQLVESGGGLVQPGGSLRLSCAASGFIFDDYAMSWVRQAPGKGLEWVSSINWSGTHTDYAEDMKGRFTISRDNAKKTLYLQMNSLQSEDTAVYYCAKGWGPAVTSIPVATLGTQVTVSS | binds
22B12/1-124 (VHH, C-term myc-His6 tag) VHH: EVQLVESGGGLVQAGGSLRLSCAASGRTFSSYAMAWFRQAPGKEREFVAGINKSGGITHSADSVKGRFTISRDNAKNTVYLQMNSLKPEDTAVYYCAADAYTVIATLPHEYDYWGQGTQVTVSS | binds
11A22/1-122 (VHH, C-term myc-His6 tag) VHH: EVQLVESGGGLVQAGGSLRLSCAASGRTFSSYAMAWFRQAPGTEREFIAGIRWSDGSTYYADSVKGRFTISRDNAKNTVYLQMNSLKPEDTAVYYCAADFYVSTLAHEYDYWGQGTQVTVSS | binds

Continued, values first:

binding result | Binder
binds | 12D44/1-122 (VHH, C-term myc-His6 tag) VHH: KVQLVESGGGLVQAGGSLRLSCAASGRTFSSYAMAWFRQAPGTEREFIAGIRWSDGSTYYADSVKGRFTISRANAKNTVYLQMNGLKPEDTAVYYCAADFYVSTLAHEYDYWGQGTQVTVSS
binds | 12E11/1-122 (VHH, C-term myc-His6 tag) VHH: EVQLVESGGGLVQAGGSLRLSCAASGRTFSSYAMAWFRQAPGKEREFVGGIRWSDGSTYYADSVKGRFTISRDNAKITVYLQMNSLKPEDTAVYYCAADFYVSTLAHEYDYWGQGTQVTVSS
binds | 13E111/1-124 (VHH, C-term myc-His6 tag) VHH: EVQLVESGGGLVQAGSSLRLSCALSGRTFSDYAIGWFRQAPGKEREFVAAISGWSGGTTNYADSVKGRFTISRDNGKNTVDLRMNSLKPEDTAVYYCAARPAVVHTRKESYPYWGQGTQVTVSS
binds | 17A6 (VHH, C-term myc-His6 tag) VHH: EVQLVESGGGLVQPGGSLRLSCAASGFTFSSYAMSWVRQAPGKGLEWVSAISSGGGSITTYADSVKGRFTISTDNAKNTLYLQMSSLKPEDTALYYCAKARSSSSYYDFGSWGQGTQVTVSS
binds | 13F71/1-123 (VHH, C-term myc-His6 tag) VHH: EVQLVESGGGLVQAGGSLRLSCVASGRTFSNYALAWFRQAPGKEREFVAAINWRSGGSTYYADSVKGRFTISRDNAKNTVYLQMNSLKPEDTAVYYCAADLIVATLPGEYDYWGQGTQVTVSS
binds | 17A3 (VHH, C-term myc-His6 tag) VHH: EVQLVESGGGLVQAGGSLSLSCAASATLHRFDNNWYRQAPGKQRELVATIAHDGSTNYANSVKGRFTISRDNARDTLFLQMHALQPEDTAVYMCNLHRWGLNYWGQGTQVTVSS
binds | 11A111/1-126 (VHH, C-term myc-His6 tag) VHH: EVQLVESGGGLVQAGGSLGLSCAAAGRTFSSSLMGWFRQAPGKEREFVAAITDNGGSTYYADSVKGRFTISRDNAKNSVYLQMNSLKPEDTAIYYCAARRSGYYSLSTSPHQYAYWGQGTQVTVSS
binds | 13G111/1-123 (VHH, C-term myc-His6 tag) VHH: EVQLVESGGGLVQAGGSLRLSCAASGRTFSSYAMGWFRQAPGKERAFVAAIRWSGGNTYYADSVKGRFTISRDNAKNTVYLQMNSLKPEDTAVYYCAADTFTLSTLSHEYDYWGQGTQVTVSS
binds | 22B910/1-121 (VHH, C-term myc-His6 tag) VHH: EVQLVESGGGLVQPGGSLPLSCAASGSIFRMNDMGWYRQAPGKQRERVATLTSAGNTNYADSVKGRFTISGDDARNTVYLQMNSLNPEDTAVYYCNAKVVVAVEGAKYDYWGQGTQVTVSS
binds | 12D51/1-120 (VHH, C-term myc-His6 tag) VHH: EVQLVESGGGLVQPGGSLRLSCAASGSAFSIKSMGWYRQAPGKQRELAAVIISSGTTTYADSVKGRFTISRDSAKNTVYLQMDSLKPEDTAVYVCNAVYVSTWGNGYDYWGQGTQVTVSS
binds | 22B101/1-123 (VHH, C-term myc-His6 tag) VHH: EVQLVESGGGLVQTGGSLRLSCAASGPTFSDYAIGWFRQAPGKEREFVAAISSSGISTIYGDSVKGRFDISRDNAKNTVYLQMNRLKPEDTAVYYCAARLFMATPNQGQYYYWGQGTQVTVSS
binds | 13G74/1-125 (VHH, C-term myc-His6 tag) VHH: EVQLVESGGGLVQAGGSLRLSCATSGRTFSTYASMGWFRQTPGKEREFVAAITSSGSTNYADSVKGRFTISRDNAKNTVYLQMNSLKPEDTAVYYCGARVNYAAYSRLEHDYHYWGQGTQVTVSS
binds | 14H61/1-122 (VHH, C-term myc-His6 tag) VHH: EVQLVESGGGLVQAGGSLRLSCAASGRTFSRFAMGWFRQAPGKEREFVAAVRWSDDYTYYADSVKGRFTISRDNAKNTVYLQMNSLSPEDTAVYYCAADEILATLPHEYDYWGQGTQVTVSS
